Test results as given in US20230213527A1 (QUANTUM SI, published 2023).
Square brackets hold non-standard residues; d marks the D form. Primed or numbered codes have the meaning given here. Ends that are not written are not given here. Lys(N3) = [N-]=[N+]=NCCCC[C@H](N)C(=O)O; Met(O) = CS(=O)CC[C@H](N)C(=O)O; FITC′ = not defined here

Legend:
[1] = target: T1, labeled peptide with N-terminal methionine (XAKLDEESILKQK-FITC, SEQ ID NO: 833, X = M); test: fluorescence polarization titration, FITC-labeled peptide (FIG. 9D)
T1 peptide: MAKLDEESILKQK-{FITC′}
Procedure: As an example, methionine oxidation was examined. The thioether moiety of the methionine side chain is susceptible to oxidation during peptide synthesis and sequencing. […] It was determined computationally that methionine sulfoxide is highly unfavorable in the PS961 NAA binding pocket and that non-polar residues are preferred at P2 (FIG. 9E). The synthetic peptide […] (SEQ ID NO: 801) was sequenced, and two populations of traces with distinct kinetic signatures were observed—a first population containing leucine recognition with median PD of 0.86 s, and a second population with median PD of 0.35 s (FIG. 4C).
Binding affinity was measured by polarization using a labeled peptide. The polarization response and total intensity measurements were carried out at 20° C. on a microplate fluorometer with 480 nm excitation and 530 nm emission. The interaction of recognizer with labeled peptide containing a target N-terminal residue (XAKLDEESILKQK-FITC (SEQ ID NO: 833)) was performed in PBS buffer at pH 7.4 and readings were collected after 30 min. Multiple analyses were performed at increasing recognizer concentration at a fixed concentration of a target peptide to obtain a titration curve. An equilibrium polarization response at each concentration was plotted and fit to calculate the KD.

[2] = target: peptide with N-terminal VAA (C-terminal azidolysine conjugated to DNA-streptavidin linker); test: single-molecule on-chip NAA recognition-only assay; immobilized peptide, dye-labeled recognizer in solution
Procedure: (§1) The semiconductor chip was placed in the sequencing device and a chip check was performed to test electronic circuit function and to optimize laser coupling alignment. The chip was then removed from the device socket and the chip was washed twice with 50 μL of 70% isopropanol, followed by four washes with 30 μL of wash buffer (50 mM MOPS pH 8.0, 60 mM potassium acetate, 50 mM glucose, 20 mM magnesium acetate, and surfactant mix) through a flow cell attached to the chip. A second chip check was then performed. The laser was then blocked via an integrated software-controlled shutter, peptide complex was added to a final concentration of 1-10 nM and mixed thoroughly, and the chip was incubated for 15 min. The chip was then washed six times with wash buffer, followed by addition of an imaging solution (wash buffer with 5 mM Trolox and an oxygen scavenging system). The laser was unblocked and the occupancy percentage (target 10-30%, Poisson distributed) was recorded by acquiring a photobleaching signal from a fluorophore attached to the peptide complex during 5 min of laser illumination. For NAA recognition-only assays, after peptide loading, labeled recognizer was added to a final concentration of 50 nM PS610, 100 nM PS691, or 250 nM PS961 (as indicated according to the experiment), and data was recorded for 10 hours. For dynamic sequencing assays, after peptide loading, a mixture of labeled recognizers was added to obtain final concentrations of 50 nM PS610, 100 nM PS691, and 250 nM PS961. Data was recorded for 15 min. The laser was then blocked briefly and aminopeptidases were added to the sequencing reaction via the flow cell and mixed thoroughly (final concentration 2-8 μM PhTET2 and/or 20-80 μM PhTET3, as indicated according to the experiment). The laser was then unblocked, and data was recorded for 10 hours. For all runs, 30 μL of mineral oil was added to fluid reservoirs at each port of the flow cell to prevent evaporation during the run.

[3] = target: peptide with N-terminal IAA (C-terminal azidolysine conjugated to DNA-streptavidin linker); test: as above
Procedure: as §1

[4] = target: peptide with N-terminal LAA (C-terminal azidolysine conjugated to DNA-streptavidin linker); test: as above
Procedure: as §1

[5] = target: T2, … (SEQ ID NO: 801), state with N-terminal methionine (MFAYPDDD) (not fully specified (C-terminus); also: C-terminal azidolysine conjugated to DNA-streptavidin linker); test: single-molecule on-chip dynamic sequencing
T2 construct: residue range inferred from the recognized N-terminal residue
T2 peptide: MFAYPDDD

[6] = target: T3, RLMoFAYPDDD (SEQ ID NO: 858), state with N-terminal methionine sulfoxide (MoFAYPDDD) (also: C-terminal azidolysine conjugated to DNA-streptavidin linker); test: single-molecule on-chip dynamic sequencing
T3 construct: residue range inferred
T3 peptide: [Met(O)]FAYPDDD[Lys(N3)]

[7] = target: T4, synthetic peptide … (SEQ ID NO: 794), state with N-terminal leucine (LIFAG) (human, not fully specified (C-terminus); also: C-terminal azidolysine conjugated to DNA-streptavidin linker); test: single-molecule on-chip dynamic sequencing with PS610, PS961, PS691, PhTET2 and PhTET3
T4 construct: residue range inferred from the recognized N-terminal residue
T4 peptide: LIFAG
Procedure: (§2) The transition from leucine to isoleucine recognition by PS961 is readily identified as a sharp change in average PD. This overall pattern is replicated across many instances of sequencing of the same peptide, with similar PD statistics across traces, as each peptide molecule follows the same reaction pathway over the course of the sequencing run (FIGS. 3B-3C).
(§3) The semiconductor chip was placed in the sequencing device and a chip check was performed to test electronic circuit function and to optimize laser coupling alignment. The chip was then removed from the device socket and the chip was washed twice with 50 μL of 70% isopropanol, followed by four washes with 30 μL of wash buffer (50 mM MOPS pH 8.0, 60 mM potassium acetate, 50 mM glucose, 20 mM magnesium acetate, and surfactant mix) through a flow cell attached to the chip. […] The laser was unblocked and the occupancy percentage (target 10-30%, Poisson distributed) was recorded by acquiring a photobleaching signal from a fluorophore attached to the peptide complex during 5 min of laser illumination. For NAA recognition-only assays, after peptide loading, labeled recognizer was added to a final concentration of 50 nM PS610, 100 nM PS691, or 250 nM PS961 (as indicated according to the experiment), and data was recorded for 10 hours. […] Data was recorded for 15 min. […] The laser was then unblocked, and data was recorded for 10 hours.

[8] = target: T5, synthetic peptide … (SEQ ID NO: 794), state with N-terminal isoleucine (IFAG) (human, not fully specified (C-terminus); also: C-terminal azidolysine conjugated to DNA-streptavidin linker); test: as above
T5 construct: residue range inferred from the recognized N-terminal residue
T5 peptide: IFAG
Procedure: as §2, §3

B1: PS961 (designed binder)
chain: MPTAASATESAIEDTPAPARPEVDGRTKPKRQPRYHVVLWDDDDHTYQYVVVMLRSLFGHPPSRGYRMAKEMDTQGRVIVLTTTREHAELKRDQIHAFGRDRLLARSKGSMKASIEAEE
notes: also called PS961 (L, I, V); PS961 (LIV)
- Kd [1]: 947 nM
- median pulse duration (PD) [2]: 0.21 s
- median pulse duration (PD) [3]: 0.28 s
- median pulse duration (PD) [4]: 1.21 s
- binding result [5]: binds
- binding result [6]: no binding (tested: 250 nM PS961)
- binding result [7]: binds
- binding result [8]: binds
